From paper PMC9412290 come the findings set out here.

For the experiment, the target named is CD46, stably expressed on CHO cells (CHO-CD46) (human) (UniProt P15529).

Positions count from the first letter of the chain named. Names may count otherwise.

Chain of UniProt P15529 (P15529 35-392): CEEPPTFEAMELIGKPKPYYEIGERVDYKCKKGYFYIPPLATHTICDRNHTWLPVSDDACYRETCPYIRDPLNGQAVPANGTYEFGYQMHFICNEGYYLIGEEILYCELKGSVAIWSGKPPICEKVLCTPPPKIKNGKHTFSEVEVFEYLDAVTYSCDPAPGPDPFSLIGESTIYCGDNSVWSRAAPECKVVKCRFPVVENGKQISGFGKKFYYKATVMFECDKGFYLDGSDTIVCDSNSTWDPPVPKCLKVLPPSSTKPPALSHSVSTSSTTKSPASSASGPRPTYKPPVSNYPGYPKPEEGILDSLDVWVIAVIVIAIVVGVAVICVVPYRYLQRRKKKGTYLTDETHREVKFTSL

B1: human adenovirus type 3 (Ad3) fiber, on particles of the Ad3 vector (natural protein)
chain: MAKRARLSTSFNPVYPYEDESSSQHPFINPGFISPDGFTQSPNGVLSLKCVNPLTTASGSLQLKVGSGLTVDTTDGSLEENIKVNTPLTKSNHSINLPIGNGLQIEQNKLCSKLGNGLTFDSSNSIALKNNTLWTGPKPEANCIIEYGKQNPDSKLTLILVKNGGIVNGYVTLMGASDYVNTLFKNKNVSINVELYFDATGHILPDSSSLKTDLELKYKQTADFSARGFMPSTTAYPFVLPNAGTHNENYIFGQCYYKASDGALFPLEVTVMLNKRLPDSRTSYVMTFLWSLNAGLAPETTQATLITSPFTFSYIREDD
For B1, the percent GFP-positive cells by flow cytometry after infection of CHO-CD46 cells with 2000 vp/c of the Ad3 vector (transduction; CHO-K1 without receptor is not transduced) turned out to be 13%.

B2: human adenovirus type 3 (Ad3) fiber with the JO4 mutation (V239D), on particles of the Ad3-JO4 vector (natural protein)
chain: B1 chain with V239D
With B2, the percent GFP-positive cells by flow cytometry after infection of CHO-CD46 cells with 2000 vp/c of the Ad3-JO4 vector (transduction; CHO-K1 without receptor is not transduced) was < 5%.
